The source of these data is publication PMC11980842, “MprF from Pseudomonas aeruginosa is a promiscuous lipid scramblase with broad substrate specificity” (Science Advances, 2025).

Assay [1] has as its target T1, Truncated PaMprF construct of residues 1 to 545 (TM region) (Pseudomonas aeruginosa PAO1).
T1 construct: MprF of Pseudomonas aeruginosa (PAO1), residues 1 to 545, representing the transmembrane region; also called truncated form of PaMprF representing the TM region
T1 chain: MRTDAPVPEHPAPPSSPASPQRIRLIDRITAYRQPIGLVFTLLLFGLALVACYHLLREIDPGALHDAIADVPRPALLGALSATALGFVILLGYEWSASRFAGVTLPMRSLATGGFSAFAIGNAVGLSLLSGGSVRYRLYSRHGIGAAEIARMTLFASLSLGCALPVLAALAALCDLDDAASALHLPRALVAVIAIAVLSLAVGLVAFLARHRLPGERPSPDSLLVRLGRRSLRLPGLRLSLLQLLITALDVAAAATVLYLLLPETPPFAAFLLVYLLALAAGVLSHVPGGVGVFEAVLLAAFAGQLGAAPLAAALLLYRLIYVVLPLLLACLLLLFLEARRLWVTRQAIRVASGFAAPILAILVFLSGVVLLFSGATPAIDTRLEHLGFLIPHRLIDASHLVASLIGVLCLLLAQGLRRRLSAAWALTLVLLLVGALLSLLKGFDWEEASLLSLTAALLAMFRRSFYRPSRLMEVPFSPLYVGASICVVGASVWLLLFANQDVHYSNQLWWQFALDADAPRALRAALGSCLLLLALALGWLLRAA
Briefly: pull-down; truncated PaMprF construct of residues 1 to 545 with sybodies; who was held is not told.

The target of assay [2] is T2, Multiple peptide resistance factor (MprF) from Pseudomonas aeruginosa, full length (Pseudomonas aeruginosa PAO1).
T2 construct: MprF of Pseudomonas aeruginosa, gene cloned from PAO1 genomic DNA into p7XC3H; full length, monomer of 96 kDa; The monomeric SEC fraction was pooled for downstream experiments; also called PaMprF; WT PaMprF; source: E. coli C41, purified (Ni Sepharose, SEC); reconstituted into SaposinA-lipid nanoparticles for cryo-EM
T2 chain: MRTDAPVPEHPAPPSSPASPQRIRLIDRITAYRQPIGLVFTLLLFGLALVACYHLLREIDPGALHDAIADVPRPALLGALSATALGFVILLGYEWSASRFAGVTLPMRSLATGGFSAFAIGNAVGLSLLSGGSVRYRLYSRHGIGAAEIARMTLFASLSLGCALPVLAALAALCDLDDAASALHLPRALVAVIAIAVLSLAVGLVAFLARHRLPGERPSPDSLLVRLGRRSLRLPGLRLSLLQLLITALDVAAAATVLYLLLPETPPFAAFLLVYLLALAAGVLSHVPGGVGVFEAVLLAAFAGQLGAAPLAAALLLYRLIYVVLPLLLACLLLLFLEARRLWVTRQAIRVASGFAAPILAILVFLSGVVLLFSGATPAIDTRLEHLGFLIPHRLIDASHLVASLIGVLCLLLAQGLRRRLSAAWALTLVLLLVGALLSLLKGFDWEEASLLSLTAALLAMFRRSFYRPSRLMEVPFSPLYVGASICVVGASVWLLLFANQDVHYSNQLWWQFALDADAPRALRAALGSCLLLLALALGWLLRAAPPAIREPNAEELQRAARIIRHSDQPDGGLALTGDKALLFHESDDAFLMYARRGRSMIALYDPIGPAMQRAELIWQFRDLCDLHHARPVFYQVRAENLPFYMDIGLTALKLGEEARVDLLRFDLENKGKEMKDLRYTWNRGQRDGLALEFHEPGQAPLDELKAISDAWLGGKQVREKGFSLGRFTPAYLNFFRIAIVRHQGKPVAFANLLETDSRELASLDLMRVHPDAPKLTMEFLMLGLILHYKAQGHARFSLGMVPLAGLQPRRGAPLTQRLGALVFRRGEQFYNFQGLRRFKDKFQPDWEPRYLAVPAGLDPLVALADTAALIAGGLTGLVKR
The experiment in a line: cryo-EM structure; PaMprF in SaposinA-lipid nanoparticles (POPC:POPG 7:3 mol/mol), separated by SEC, mixed with a 1.2x molar excess of Sb29. The conditions noted are these: both partners purified.

B1: Sybody 29 (synthetic nanobody against PaMprF) (VHH)
VHH: GVQLVESGGGLVQAGGSLRLSCAASGFPVSSAWMAWYRQAPGKEREWVAAIFSAGQKTRYADSVKGRFTISRDNAKNTVYLQMNSLKPEDTAVYYCNVKDTGHWWDIYDYWGQGTQVTVSA
notes: synthetic nanobody from the loop sybody sublibrary; the structure of its complex with PaMprF was deposited as PDB 9GOE; Selected by one round of ribosome display and two rounds of phage display against biotinylated full-length PaMprF; also called Sb29
In the case of B1, the binding result in assay [1] and in assay [2] was “binds” throughout.
